From patent US20220073599A1 (Hoffmann-La Roche, published 2022)

T1: human Ang2-RBD-muFc (human, UniProt O15123 275-496, limits assumed)
T1 construct: also called Human ANG2 (KinExA); not shown: murine Fc (muFc)
T1 sequence: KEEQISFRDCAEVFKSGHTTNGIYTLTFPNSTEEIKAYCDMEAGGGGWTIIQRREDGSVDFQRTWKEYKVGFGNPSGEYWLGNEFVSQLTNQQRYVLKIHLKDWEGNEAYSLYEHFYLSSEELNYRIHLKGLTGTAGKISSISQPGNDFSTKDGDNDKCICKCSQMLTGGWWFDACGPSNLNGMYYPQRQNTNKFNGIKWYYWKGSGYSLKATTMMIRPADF

T2: human VEGFA-121-His (human, UniProt P15692 181-395)
T2 construct: Prepared in-house; not shown: His tag
T2 sequence: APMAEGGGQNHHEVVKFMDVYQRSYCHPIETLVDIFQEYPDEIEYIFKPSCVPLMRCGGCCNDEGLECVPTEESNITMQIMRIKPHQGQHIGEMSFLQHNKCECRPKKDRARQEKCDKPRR

T3: Mouse VEGF-A-121 (mouse, UniProt Q00731-3 27-146)
T3 construct: also called mouse VEGF-A121-His; not shown: His tag
T3 sequence (looked up): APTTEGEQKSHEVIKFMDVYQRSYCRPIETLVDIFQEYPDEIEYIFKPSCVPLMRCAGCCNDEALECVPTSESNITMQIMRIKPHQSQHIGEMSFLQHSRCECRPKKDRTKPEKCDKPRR


What was measured:
human Ang2-RBD-muFc = target: T1, human Ang2-RBD-muFc; experiment: KinExA, human ANG2 (Ang2-RBD-muFc) by the table's title; the column's head prints VEGFA-121
Protocol: All KinExA® experiments were performed at room temperature (RT) using PBS pH 7.4 with 0.01% BSA and 0.01% Tween® 20 (BioRad, #161-0781) as running buffer. […] A flow rate of 0.25 ml/min was used. A constant amount of Ang2-RBD-muFc (50 pM and in a second experiment 500 pM) was titrated with tested antibody by twofold serial dilution starting at 4 nM (concentration range 1.95 pM-4000 pM). Antigen-antibody complexes were incubated at RT for at least 8 h to allow equilibrium to be reached. Equilibrated mixtures were then drawn through a column of Anti-Ang2 antibody (MAB098) coupled beads in the KinExA® system at a volume of 750 μl for 50 pM constant Ang2 and at a volume of 188 μl for 500 pM constant Ang2 permitting unbound Ang2 to be captured by the beads without perturbing the equilibrium state of the solution. Bound Ang2 was detected using a second biotinylated anti-Ang2 antibody (BAM0981) with a concentration of 250 ng/ml and following by an injection of 250 ng/ml Streptavidin Alexa Fluor™ 647 conjugate in sample buffer. Each sample was measured in duplicates for all equilibrium experiments. The KD was obtained from non-linear regression analysis of the data using a one-site homogeneous binding model contained within the KinExA® software (Version 4.0.11) using the “standard analysis” method. […]

human VEGFA-121-His [1] = target: T2, human VEGFA-121-His; experiment: SPR, VEGF-A121-His captured by anti-His antibody, Fab injected, single cycle kinetics; marked outside of Biacore specification; exponent as printed
Protocol: (§1) An anti-His capturing antibody (GE Healthcare 28995056) was immobilized to a Series S Sensor Chip C1 (GE Healthcare BR100535) using standard amine coupling chemistry resulting in a surface density of approximately 600 resonance units (RU). As running and dilution buffer, HBS-P+ (10 mM HEPES, 150 mM NaCl pH 7.4, 0.05% Surfactant P20) was used. […] A dilution series of the tested antibody (3.7-300 nM, 1:3 dilution) was successively injected for 60 s each, dissociation was monitored for 3600 s at a flow rate of 30 μl/min (single cycle kinetics). The surface was regenerated by injecting 10 mM Glycine pH 1.5 for 60 s at a flow of 5 μl/min. […] Curve fitting was performed using the 1:1 Langmuir binding model within the Biacore® evaluation software.
Binding kinetics to human VEGF-A and human ANG2 for the candidate antibodies were assessed as described above using the indicated Fab fragments (amino acid sequence as illustrated in Table 4).

human VEGFA-121-His [2] = target: T2, human VEGFA-121-His; experiment: SPR crossreactivity set-up, VEGF-A121-His captured by anti-His antibody, Fab injected, single cycle kinetics
Protocol: as §1
(§2) Crossreactivity to VEGF-A and ANG2 from other species was assessed as described above in “Materials & general methods” section.

Mouse VEGF-A-121 = target: T3, Mouse VEGF-A-121; experiment: as above
Protocol: as §1, §2

human VEGFA-121-His [3] = target: T2, human VEGFA-121-His; experiment: SPR, VEGF-A121-His captured by anti-His antibody, Fab injected, single cycle kinetics; marked outside of Biacore specification
Protocol: as §1

Kd (human Ang2-RBD-muFc) | koff (human VEGFA-121-His [1]) | Kd (human VEGFA-121-His [2]) | koff (human VEGFA-121-His [2]) | kon (human VEGFA-121-His [2]) | t1/2 (human VEGFA-121-His [2]) | Kd (Mouse VEGF-A-121) | koff (Mouse VEGF-A-121) | kon (Mouse VEGF-A-121) | t1/2 (Mouse VEGF-A-121) | Kd (human VEGFA-121-His [3]) | koff (human VEGFA-121-His [3]) | Binder
~0.002 nM | 5.82e-06 s⁻¹ | 0.0455 nM | 2.21e-05 s⁻¹ | 486000 M⁻¹ s⁻¹ | 8.72 h | 0.368 nM | 0.000183 s⁻¹ | 497000 M⁻¹ s⁻¹ | 1.05 h | – | – | bispecific anti-VEGF-A/anti-ANG2 Fab fragment P1AD9820 (Fab, V domains shown, Bispecific Fab with two paratopes in one VH/VL pair; also called P1AD9820 Fab) VH: SEHLVESGGGLVKPGGSLRLSCATADFFEYDDMSWVRQAPGKGLEWVGSISPKGDHKYLNTKFIGRFTISRDDSKNTLYLQMNSLRAEDTAVYYCARDVGFFDWWGQGTLVTVSS VL: AIYMHQEPSSLSASVGDRVTITCHGSYWLNSEVAWYQQKPGKAPKLLIFDGDFKVYEVPSRFSGSGSHEDYTLTISSLQPEDFATYYCQQYRYHPYTFGHGTKVEIKR
– | – | – | – | – | – | – | – | – | – | 0.003 nM | 4.53e-06 s⁻¹ | bispecific anti-VEGF-A/anti-ANG2 Fab fragment P1AA8906 (Fab, V domains shown, Bispecific Fab with two paratopes in one VH/VL pair (DutaFab); CH1 and Ckappa) VH: DFQLVESGGGLVKPGGSLRLSCAASYEFEYDDMSWVRQAPGKGLEWVGSISPKGGSTYYNTKFIGRFTISRDNSKNTLYLQMNSLRAEDTAVYYCARDVGFFDMWGQGTLVTVSS VL: AIYMHQEPSSLSASVGDRVTITCHGSYWLSNYLAWYQQKPGKAPKLLIFDARWLVHGVPSRFSGSGSHEDYTLTISSLQPEDFATYYCQQYRYHPYTFGHGTKVEIKR
